Values of other authors in PMC7553146.

What was measured:
His41 = His41 (UniProt position 3281, VYCPRHVICTA)
Cys145 = Cys145 (UniProt position 3385, FLNGSCGSVGF)

Substance: 3C-like main protease (3CL Mpro, nsp5) (Severe acute respiratory syndrome coronavirus (SARS-CoV))
- pKa (His41): 6.3 ± 0.1
- pKa (Cys145): 8.0 ± 0.3
